# Results published in paper PMC6232179 (2018).
# T1: His-tagged ER luminal domain of IRE1α (IRE1-NLD-His6-KDEL) (red fluorescent tag, covalently labelled (only in the MST of Figure 4C))
# T1 chain: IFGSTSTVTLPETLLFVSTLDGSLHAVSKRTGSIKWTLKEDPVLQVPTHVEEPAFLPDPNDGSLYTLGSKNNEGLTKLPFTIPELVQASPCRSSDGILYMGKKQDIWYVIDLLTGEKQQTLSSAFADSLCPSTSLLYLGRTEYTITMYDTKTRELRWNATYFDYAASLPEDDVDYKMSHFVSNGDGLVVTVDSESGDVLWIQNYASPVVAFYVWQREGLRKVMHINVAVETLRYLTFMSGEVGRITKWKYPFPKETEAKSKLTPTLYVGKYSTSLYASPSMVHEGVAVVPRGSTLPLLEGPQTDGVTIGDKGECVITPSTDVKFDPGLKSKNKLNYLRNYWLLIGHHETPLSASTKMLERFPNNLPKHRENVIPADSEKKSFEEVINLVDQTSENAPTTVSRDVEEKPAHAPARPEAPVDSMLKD
# Assays:
# [1] = target: T1, His-tagged ER luminal domain of IRE1α …; experiment: SPR
# [2] = target: T1, His-tagged ER luminal domain of IRE1α …; experiment: MST; COX-2 labelled
# [3] = target: T1, His-tagged ER luminal domain of IRE1α …; experiment: MST; IRE1-NLD labelled
Kd [1] [nM],Kd [2] [nM],Kd [3] [nM],Binder
3530,–,–,PDIA6 (protein) LYSSSDDVIELTPSNFNREVIQSDSLWLVEFYAPWCGHCQRLTPEWKKAATALKDVVKVGAVDADKHHSLGGQYGVQGFPTIKIFGSNKNRPEDYQGGRTGEAIVDAALSALRQLVKDRLGGRSGGYSSGKQGRSDSSSKKDVIELTDDSFDKNVLDSEDVWMVEFYAPWCGHCKNLEPEWAAAASEVKEQTKGKVKLAAVDATVNQVLASRYGIRGFPTIKIFQKGESPVDYDGGRTRSDIVSRALDLFSDNAPPPELLEIINEDIAKRTCEEHQLCVVAVLPHILDTGAAGRNSYLEVLLKLADKYKKKMWGWLWTEAGAQSELETALGIGGFGYPAMAAINARKMKFALLKGSFSEQGINEFLRELSFGRGSTAPVGGGAFPTIVEREPWDGRDGELPVEDDIDLSDVELDDLGKDEL
–,138,155,"COX-2 (prostaglandin endoperoxide synthase 2, PTGS2), purified His-tagged protein (enzyme, red fluorescent tag, covalently labelled (only in the MST of Figure 4B)) ANPCCSHPCQNRGVCMSVGFDQYKCDCTRTGFYGENCSTPEFLTRIKLFLKPTPNTVHYILTHFKGFWNVVNNIPFLRNAIMSYVLTSRSHLIDSPPTYNADYGYKSWEAFSNLSYYTRALPPVPDDCPTPLGVKGKKQLPDSNEIVEKLLLRRKFIPDPQGSNMMFAFFAQHFTHQFFKTDHKRGPAFTNGLGHGVDLNHIYGETLARQRKLRLFKDGKMKYQIIDGEMYPPTVKDTQAEMIYPPQVPEHLRFAVGQEVFGLVPGLMMYATIWLREHNRVCDVLKQEHPEWGDEQLFQTSRLILIGETIKIVIEDYVQHLSGYHFKLKFDPELLFNKQFQYQNRIAAEFNTLYHWHPLLPDTFQIHDQKYNYQQFIYNNSILLEHGITQFVESFTRQIAGRVAGGRNVPPAVQKVSQASIDQSRQMKYQSFNEYRKRFMLKPYESFEELTGEKEMSAELEALYGDIDAVELYPALLVEKPRPDAIFGETMVEVGAPFSLKGLMGNVICSPAYWKPSTFGGEVGFQIINTASIQSLICNNVKGCPFTSFSVPDPELIKTVTINASSSRSGLDDINPTVLLKERSTEL"
1660,–,–,BiP (protein) not shown
